Drawing on the Immune Epitope Database (IEDB), this text covers Kd for 49 sequences.

One may read the Kd as the concentration at which binding is half-saturated.

Targets include HLA-A*02:03; HLA-A*02:02; HLA-A*02:06; HLA-A*33:01; HLA-A*31:01; HLA-A*68:01; HLA-A*03:01; HLA-A*11:01.
Assay in all cases: IEDB peptide-MHC binding, purified MHC/competitive/radioactivity; filed as Kd, often an IC50 or EC50 that approximates it; ≥ and ≤ were set here for values at or beyond the usual limits of such assays
Setting [1] is: source organism: SARS coronavirus Tor2.
Where [2] appears, read: source organism: Vaccinia virus WR.
Setting [3] is: source organism: Lassa virus Josiah.
The mark [4] stands for this setting: source organism: Dengue virus 1 Brazil/97-11/1997.
[5] abbreviates: source organism: Dengue virus 2 Jamaica/1409/1983.
[6] abbreviates: source organism: Mammarenavirus machupoense.
Setting [7] is: source organism: Dengue virus 3 Martinique/1243/1999.
Setting [8] is: source organism: Mammarenavirus brazilense.

For FLAFVVFLL, the Kd came to 0.0879 µM with HLA-A*02:03 (setting [1]), 0.000411 µM with HLA-A*02:02 (setting [1]) and 0.00257 µM with HLA-A*02:06 (setting [1]).
Consider SLVITYCLV, for which the Kd came out at 0.201 µM in the experiment with HLA-A*02:03 (setting [2]), 1.69 µM with HLA-A*02:02 (setting [2]) and 0.269 µM with HLA-A*02:06 (setting [2]).
The like results for GAFMYTKHSM were, in that order, 0.458 µM, 0.544 µM and 3.14 µM.
Regarding LNISGYNFSL, the Kd in the experiment with HLA-A*02:03 (setting [3]) came out at 4.55 µM; with HLA-A*02:02 (setting [3]) it was 0.0155 µM; with HLA-A*02:06 (setting [3]), 0.42 µM.
KADAVVADL: the Kd in the experiment with HLA-A*02:03 (setting [2]) worked out at 12.4 µM; with HLA-A*02:02 (setting [2]) it was 5.14 µM; in the experiment with HLA-A*02:06 (setting [2]), 2.21 µM.
Regarding SQMETDFLEL, the dissociation constant Kd in the experiment with HLA-A*02:03 (setting [1]) came to 0.597 µM; in the experiment with HLA-A*02:02 (setting [1]) it was 0.227 µM; in the experiment with HLA-A*02:06 (setting [1]), 0.0206 µM.
TTLLNETAKV: the equilibrium dissociation constant (Kd) in the experiment with HLA-A*02:03 (setting [2]) was 0.00017 µM; with HLA-A*02:02 (setting [2]), 1.64 µM; with HLA-A*02:06 (setting [2]), 1.65 µM.
The like results for AADLTQIFEV were, in that order, 0.404 µM, 1.24 µM and 0.0109 µM.
In the case of AVLDDGIYRI, the Kd with HLA-A*02:06 (setting [4]) came to 0.0105 µM.
As to SLGLILLKIV, the Kd in the experiment with HLA-A*02:03 (source organism: Dengue virus 4 Dominica/814669/1981) stood at 0.0147 µM.
For SQVNPLTLTA, the Kd with HLA-A*02:06 (setting [4]) is 0.167 µM.
For GLFGKGGIV, the dissociation constant Kd with HLA-A*02:03 (setting [5]) was 0.011 µM.
Consider TMLDVDLRPA, for which, in the experiment with HLA-A*02:06 (source organism: Dengue virus 1 Singapore/S275/1990), the Kd is 0.0169 µM.
Turning to LLAIGCYSQV, the equilibrium dissociation constant (Kd) in the experiment with HLA-A*02:03 (setting [5]) worked out at 0.00828 µM.
On to FVFDRPLPV, for which, in the experiment with HLA-A*02:06 (source organism: Homo sapiens), the dissociation constant Kd amounted to 0.00238 µM.
In the case of AMHTALTGA, the dissociation constant (Kd) with HLA-A*02:03 (setting [5]) is 0.0151 µM.
On to LLIWAYLSKK, for which the dissociation constant (Kd) with HLA-A*33:01 (setting [2]) amounted to 2.34 µM; in the experiment with HLA-A*31:01 (setting [2]) it was 1.98 µM; in the experiment with HLA-A*68:01 (setting [2]), 0.363 µM; in the experiment with HLA-A*03:01 (setting [2]), 0.0421 µM; with HLA-A*11:01 (setting [2]) it was 0.124 µM.
Taken in the same sequence, the figures for YITIQDRPR were 0.187 µM, 0.138 µM, 0.0262 µM, at least 78 µM and at least 44.8 µM.
Taken in the same sequence, the figures for VAALDGTFQR were 0.675 µM, 0.124 µM, 0.0401 µM, at least 34.1 µM and 0.681 µM.
The like results for KQYDSTDFK were, in that order, at least 25.5 µM, 0.0709 µM, 1.86 µM, 0.0618 µM and 0.0335 µM.
As for IANSNIIKNK, the Kd in the experiment with HLA-A*33:01 (setting [2]) was at least 39.3 µM; with HLA-A*31:01 (setting [2]) it was 19.9 µM; with HLA-A*68:01 (setting [2]), 0.212 µM; in the experiment with HLA-A*03:01 (setting [2]) it was 0.0472 µM; with HLA-A*11:01 (setting [2]), 0.0395 µM.
On to GLTADARLL, for which the dissociation constant (Kd) with HLA-A*02:03 (source organism: Homo sapiens) turned out to be 0.362 µM.
Turning to SMLTNAISSR, the Kd came out at 2.33 µM with HLA-A*33:01 (setting [2]); 0.117 µM with HLA-A*31:01 (setting [2]); 0.218 µM with HLA-A*68:01 (setting [2]); 0.505 µM with HLA-A*03:01 (setting [2]); 0.258 µM with HLA-A*11:01 (setting [2]).
As to GSWATSSFR, the dissociation constant Kd with HLA-A*33:01 (setting [2]) came out at 0.226 µM; in the experiment with HLA-A*31:01 (setting [2]), 0.00056 µM; with HLA-A*68:01 (setting [2]), 0.0541 µM; in the experiment with HLA-A*03:01 (setting [2]) it was 0.111 µM; with HLA-A*11:01 (setting [2]), 0.00738 µM.
Take IQVTISSYK: the Kd with HLA-A*33:01 (setting [1]) turned out to be 7.95 µM; in the experiment with HLA-A*31:01 (setting [1]) it was 0.139 µM; with HLA-A*68:01 (setting [1]), 0.274 µM; with HLA-A*03:01 (setting [1]), 0.0154 µM; in the experiment with HLA-A*11:01 (setting [1]), 0.0108 µM.
Taken in the same sequence, the figures for VTLADAGFMK were 11.7 µM, 1.2 µM, 0.135 µM, 0.033 µM and 0.00392 µM.
On to SVNEYHMLK, for which the Kd with HLA-A*33:01 (setting [2]) came out at 0.0857 µM; in the experiment with HLA-A*31:01 (setting [2]), 0.00692 µM; with HLA-A*68:01 (setting [2]) it was 0.00224 µM; in the experiment with HLA-A*03:01 (setting [2]) it was 0.0061 µM; with HLA-A*11:01 (setting [2]) it was 0.00223 µM.
The like results for SSSIDVDKR were, in that order, at least 35 µM, 8.95 µM, 0.146 µM, at least 78 µM and 4.75 µM.
Turning to MVMCGGSLY, the dissociation constant Kd with HLA-A*33:01 (setting [1]) is 4.62 µM; with HLA-A*31:01 (setting [1]), 0.0704 µM; in the experiment with HLA-A*68:01 (setting [1]), 0.0226 µM; in the experiment with HLA-A*03:01 (setting [1]), 0.0419 µM; in the experiment with HLA-A*11:01 (setting [1]), 0.0739 µM.
Consider DICSKHMDAR, for which the dissociation constant Kd is 0.126 µM in the experiment with HLA-A*33:01 (setting [2]); 1.48 µM with HLA-A*31:01 (setting [2]); 0.605 µM with HLA-A*68:01 (setting [2]); at least 47.1 µM in the experiment with HLA-A*03:01 (setting [2]); at least 69.8 µM with HLA-A*11:01 (setting [2]).
Take SSFDYCGMDH: the Kd is at least 48.9 µM in the experiment with HLA-A*33:01 (setting [6]); 10.6 µM with HLA-A*31:01 (setting [6]); 3.4 µM in the experiment with HLA-A*68:01 (setting [6]); 13.8 µM in the experiment with HLA-A*03:01 (setting [6]); 6.58 µM in the experiment with HLA-A*11:01 (setting [6]).
Consider WVSLKKTNDK, for which the equilibrium dissociation constant (Kd) with HLA-A*33:01 (setting [2]) is at least 70 µM; with HLA-A*31:01 (setting [2]), at least 32.7 µM; with HLA-A*68:01 (setting [2]), at least 45.5 µM; with HLA-A*03:01 (setting [2]) it was 2.09 µM; in the experiment with HLA-A*11:01 (setting [2]) it was 0.608 µM.
Taken in the same sequence, the figures for STDNAVYQCR were 2.89 µM, 0.427 µM, 0.0813 µM, 5.72 µM and 0.0354 µM.
The like results for PIINTHSFY were, in that order, at least 77.7 µM, at least 77.9 µM, at least 77.7 µM, at least 78 µM and at least 77.9 µM.
Regarding IFMRDWNSK, the Kd with HLA-A*33:01 (setting [2]) is 8.94 µM; with HLA-A*31:01 (setting [2]), 8.52 µM; with HLA-A*68:01 (setting [2]), 2.39 µM; with HLA-A*03:01 (setting [2]) it was 11.7 µM; with HLA-A*11:01 (setting [2]) it was 8.21 µM.
Regarding FALKKLIIDR, the dissociation constant (Kd) in the experiment with HLA-A*33:01 (setting [2]) was 3.3 µM; with HLA-A*31:01 (setting [2]) it was 1.07 µM; with HLA-A*68:01 (setting [2]), 0.55 µM; in the experiment with HLA-A*03:01 (setting [2]), at least 70.1 µM; in the experiment with HLA-A*11:01 (setting [2]), 2.1 µM.
As for ALCEKALKY, the Kd with HLA-A*33:01 (setting [1]) is at least 35.8 µM; with HLA-A*31:01 (setting [1]) it was at least 65.1 µM; with HLA-A*68:01 (setting [1]), 13 µM; with HLA-A*03:01 (setting [1]) it was 0.234 µM; in the experiment with HLA-A*11:01 (setting [1]), 1.44 µM.
For DSIKDVIHDY, the Kd with HLA-A*33:01 (setting [2]) was at least 70 µM; with HLA-A*31:01 (setting [2]), 15.4 µM; with HLA-A*68:01 (setting [2]) it was 10.2 µM; with HLA-A*03:01 (setting [2]), at least 70.1 µM; with HLA-A*11:01 (setting [2]), 5.14 µM.
Consider TLIMIGSNA, for which the Kd with HLA-A*02:03 (setting [7]) is 0.032 µM.
In the case of SSNKDPITVY, the Kd is at least 70 µM with HLA-A*33:01 (setting [2]); at least 50.9 µM with HLA-A*31:01 (setting [2]); at least 42.8 µM with HLA-A*68:01 (setting [2]); at least 70.1 µM with HLA-A*03:01 (setting [2]); 1.88 µM in the experiment with HLA-A*11:01 (setting [2]).
The like results for TISKDNLER were, in that order, 0.49 µM, 0.175 µM, 0.0181 µM, 2.62 µM and 0.17 µM.
For SNSKEIPSFR, the Kd in the experiment with HLA-A*33:01 (setting [8]) was 0.54 µM; with HLA-A*31:01 (setting [8]), 0.65 µM; in the experiment with HLA-A*68:01 (setting [8]), 0.315 µM; with HLA-A*03:01 (setting [8]) it was at least 33.3 µM; with HLA-A*11:01 (setting [8]), 1.88 µM.
On to LVVISVIFY, for which the dissociation constant Kd with HLA-A*33:01 (setting [2]) was at least 66.1 µM; with HLA-A*31:01 (setting [2]), 10.7 µM; with HLA-A*68:01 (setting [2]), 5.48 µM; with HLA-A*03:01 (setting [2]), at least 24.4 µM; in the experiment with HLA-A*11:01 (setting [2]), at least 36.7 µM.
The like results for LSARNKLFKR were, in that order, 1.71 µM, 0.0169 µM, 0.124 µM, at least 70.1 µM and 2.68 µM.
For the sequence VVDTFISYNR, the Kd turned out to be 0.101 µM with HLA-A*33:01 (setting [2]); 0.0252 µM with HLA-A*31:01 (setting [2]); 0.0805 µM with HLA-A*68:01 (setting [2]); 2.54 µM in the experiment with HLA-A*03:01 (setting [2]); 0.343 µM with HLA-A*11:01 (setting [2]).
Regarding PLNEGVMAV, the Kd with HLA-A*02:03 (setting [7]) was determined as 0.0215 µM.
Take GVVTTSGTYV: in the experiment with HLA-A*02:06 (setting [4]), the equilibrium dissociation constant (Kd) is 0.665 µM.
As for VSLLRSTSQK, the Kd in the experiment with HLA-A*33:01 (setting [1]) is 2.54 µM; with HLA-A*31:01 (setting [1]), 0.175 µM; with HLA-A*68:01 (setting [1]) it was 6.33 µM; with HLA-A*03:01 (setting [1]) it was 0.0116 µM; in the experiment with HLA-A*11:01 (setting [1]), 0.172 µM.
Take KFLEFSNRVY: the dissociation constant (Kd) in the experiment with HLA-A*33:01 (setting [2]) was at least 70 µM; with HLA-A*31:01 (setting [2]), 0.0245 µM; in the experiment with HLA-A*68:01 (setting [2]), at least 68.8 µM; with HLA-A*03:01 (setting [2]) it was at least 39.8 µM; with HLA-A*11:01 (setting [2]), 10.1 µM.
